In a protein production outcome set (Wang et al. 2014):

Assay: label from the status in PepcDB records

| Sequence | protein production |
| --- | --- |
| MEKYQNLLVVIDPNQDDQPALRRAVYIVQRNGGRIKAFLPVYDLSYDMTTLLSPDERNAMRKGVINQKTAWIKQQARYYLEAGIQIDIKVIWHNRPYEAIIEEVITDKHDLLIKMAHQHDKLGSLIFTPLDWQLLRKCPAPVWMVKDKEWPEYGTIVVAANLSNEESYHDALNLKLIELTNDLSHRIQKDPDVHLLSAYPVAPINIAIELPDFDPNLYNNALRGQHLIAMKELRQKFSIPEEKTHVKEGLPEQVIPQVCEELNAGIVVLGILGRTGLSAAFLGNTAEQLIDHIKCDLLAIKPDGFTCPITVDSDNE | not failed |
| MELAAILFSMFFAMNIGASGAAASMGIAYGSEAVKKKFHALLICAAGVLSGAVIGGGNVVKTISSGIIPERVISLEIVCIIIGSAALSLFIANVLGIPLSTSEVTVGSVVGVGVAYQVLYVKSLLVIVSFWVIVPIVAFAFTFAMAKIMKKTIKRPASGKKAKVLAVILLITGFFEAFSAGMNNVANAVGPLVAAHVLTVGEGTLYGGLFVALGALLLGRRVLETNGKKITRFSKGEGIILSGTGAGLVITSSIFGLPVPLAQVTSSSIIGMGMAKNGGNVFHKQVVKTMLKVWVVSPFLSLSLSYMLVSLLLKGDYYALIVVTSVLLASVGTISLMRAVKKEHSSVHEQGGGI | failed |
| MELANKMLHALEHEDMALAKKYFDEVVQAGTDEEQYYLAEELFALGFLDETEDLYELLLAKYKDEGELLVRAAEVALEKDDMDAAQDYLEKVNKEDEAYIESLLVLADLYQMQGLFEVSEQKLLEAKQMAPNEPIIDFALGEYYLSQARFASAVQSYQTAVEAGLTIISNGAVSVYERIAEAFAASGAFEEALPYYERALEDKESVDTLFGMGLTAYQAKDYTKAIHALEHLREHDPSYTTLYSYLAKSYEENGEPEKAIAVLRDGLTQDEFNKEMFLEAGKLAVTLRLPEEAEEFYRQAIVLDEEFSEAIMQLNKLLLAKENYEGVIELVEGLGEEVISEPQIFWDVSVAYQETEQYNKAKANYELAYPHFTNNPTFLKEYGLFLREEGEHAKSQEVLRSYLELEPEDTEILSLFD | failed |
| MELAVHDATEDGAGYATAASSWVVVEPEFVVDVTDIRSFVQCPRLYYLNKLSGLPLKYPVTKGTIVHEVFGDLLRGRDLEASVAQRVDEAGLELGLLGRSRAEVEADVRDNASAIEGWLQQGRLTDEDEWRSEYTLVSERFGIKGRCDAIRRGMPVELKTGKNTNREPRFHDKVQAACYALMLDEHGVPADTGTLLYTKNAAVDRSEASGDLSPAKEFSIGRGFLEFVVRERNHLAALEASDGPPTGYEADAKCDYCFEQDTCMVVSGRLDQESKAGRIGDPVPAEERAYFDELYDAIEAERGAIHDEYRKLWEQSPDERAADDRAVVGLSPAEQTELPDGRWRLTATRPGSAASKIREGDRVLASDGDPVAGRAEMARVERLDADRVEVTTDEPVSLCRLDVYPSELSVDRMLTALHDAVLKSDQRRTDLLFDRASPRFEGGDHDLIPNNDAQNAAVNRALNAEDFALVHGPPGTGKTYTIATLVQAFVARGDRVLVSAFTNRAVDNALDALRQQGHEDIVRVGTETGVRADMQDLRLDRSGDPGERAAALRSAPVVAATTATCGSRILRELEFDVVLVDEASQLTEPDTLAAINRGARFVLVGDHEQLPPVVRSGGRLSKSLFERLHETYPEASVMLDQQYRMSQRIQAFSSREFYDGQLRPASSEVAGQRLTDVGVDPGGAVHGGVTFYDVPGTDDAHVDPAEADRVADVVTAYVDAGLDPGEIGVIAPFRAQVAEIGRRTPAGVAVDTVDRFQGSSKEVIVVSFVARGTLEGPIFEDHRRVNVALSRAKKSLVLVGDERALRSEPLYDRMIDWADMELEHHHHHH | failed |
| MELFTLGACRQVGKSCFVLKTSEGLVMLDCGLHPSYQDDRRYPNFSLAFSYGPLKAVFITHCHADHVGALPILTERWGYDGPIYMSEPTRKLSYYILEECVGSWGGDDEWTDSSRSEWSYTQREVESCLTKVTIMEPGQSISVGENVQVHSWMAGHVLGAYMFSIVVDNHRILYTGDFTSCPTFHLPPARVDDIPYPPDVILSEATYATSFKDGRLNNQVEFIQNVLDCLLDGGKVLVPVFAIGRAQELLLLLGK | not failed |
| MELKTAADSNFSESEESPETKGIRILEGDPKKAIIKLAVPMIVAMSVQTLYQLIDTFWVSGLGADALAAMGFVFPFYFISMALSNGLGIGGGAAISRKIGARDKAGADNVAVHTIIIMMLLVLIFTIPFYVFAPHIFSLVGAGKTTDLAVAYARVIFLGSIVIFFTNVANSILRSEGDSKRAMYAMVLGAALNIVIDPIFIYTFKMGIAGAAWATLLSLAVSSAMMLNWLFFKKDTFVSFDFKDFSFEKSIINDIFRIAVPASAQQLSMSLSMLVLNLIIVNVSSTDGVAVYSTGWRVATIAIAPLVGIATAVVSVSGAAFGAKDFEKAKTAHTYAVKVGLLIEGGVAAFTFIFAPQIAAVFTQTEEAAHIAPDLIQFLRIICIFYPTVSLGMLSTSLFQGAGKGFSALTANLLRTIVFTPLFAAFFAFNLNMGQVGAWWGIVAGNAIGAGVVYVWVKLYLSTILKTGPLHKPFEQGI | failed |
| MELLCHEVDPVRRAVRDRNLLRDDRVLQNLLTIEERYLPQCSYFKCVQKDIQPYMRRMVATWMLEVCEEQKCEEEVFPLAMNYLDRFLAGVPTPKSHLQLLGAVCMFLASKLKETSPLTAEKLCIYTDNSIKPQELLEWELVVLGKLKWNLAAVTPHDFIEHILRKLPQQREKLSLIRKHAQTFIALCATDFKFAMYPPSMIATGSVGAAICGLQQDEEVSSLTCDALTELLAKITNTDVDCLKACQEQIEAVLLNSLQQYRQDQRDGSKSEDELDQASTPTDVRDIDL | not failed |
| MELLIRTEQLLLQNEKNWELYLSNREEEKPFDFYKDMKPFVDEAKRCADDFLELAIPWVNTERPPYLGELQLRQACDNVQMTAVSAFNGRSFYKHFLDHYQSTKYTLTRVRDFLKRKEESM | not failed |
| MELLKEYNPYLEYRDGELFIEGVSLKELAQTFGTPLYVYSSNFIKERFEAYRKAFPDALICYAVKANFNPHLVKLLGELGAGADIVSGGELYLAKKAGIPPERIVYAGVGKTEKELTDAVDSEILMFNVESRQELDVLNEIAGKLGKKARIAIRVNPDVDPKTHPYIATGMQKSKFGVDIREAQKEYEYASKLENLEIVGIHCHIGSQILDISPYREAVEKVVSLYESLTQKGFDIKYLDIGGGLGIKYKPEDKEPAPQDLADLLKDLLENVKAKIILEPGRSIMGNAGILITQVQFLKDKGSKHFIIVDAGMNDLIRPSIYNAYHHIIPVETKERKKVVADIVGPICETGDFLALDREIEEVQRGEYLAVLSAGAYGFAMSSHYNMRPRAAEVLVENGSVKLIRKRENYDYIVEPSLDI | not failed |
| MELNQPPLPTEIDGDAYHKPSFNDLGLKESVLKSVYEAGFTSPSPIQEKAIPAVLQGRDVIAQAQTGTGKTAAFALPIINNLKNNHTIEALVITPTRELAMQISDEIFKLGKHTRTKTVCVYGGQSVKKQCEFIKKNPQVMIATPGRLLDHLKNERIHKFVPKVVVLDESDEMLDMGFLDDIEEIFDYLPSEAQILLFSATMPEPIKRLADKILENPIKIHIAPSNITNTDITQRFYVINEHERAEAIMRLLDTQAPKKSIVFTRTKKEADELHQFLASKNYKSTALHGDMDQRDRRSSIMAFKKNDADVLVATDVASRGLDISGVSHVFNYHLPLNTESYIHRIGRTGRAGKKGMAITLVTPLEYKELLRMQKEIDSEIELFEIPTINENQIIKTLHDAKVSEGIISLYEQLTEIFEPSQLVLKLLSLQFETSKIGLNQQEIDAIQNPKEKTPKPSNKKTPQHERARSFKKGQHRDRHPKTNHYSKKPKRR | failed |
| MELRIMTGKLILLGFIIYQCVFSESDNLPWLVFSLLVYVCINLGIAILPKGKTKKLFIIISVIISIVSYAEVHPLFILFLPFTLCEGAADFGLPKWAVLAASIVPVLFINESISAVYALTAAFQFLLYWAASHDAARIEKLEHHIDQTRRDLQKLTNMLRENKEFIRQSEYTYKLEERNRLSQEIHDKIGHSMTGALIQLEAAKRVLDIDKEKASELLQNAINISKDGIENIRLTLKSVKPPSEQMGIHRLRLFIDECSAQYHMNISFLHKGDLDVISQIQWKIIFENITEALTNSVKYAEATHVSICIHVLNTLIKAEVKDNGKGRQKIKKGMGIIGMEERAASVNGKVIVDGSNGFSVTTLLPKHE | failed |
